We go through 1 substance from US9782486B2, “Albumin conjugated temperature and pH-sensitive multi-block copolymer, a method of preparation thereof and drug delivery system using the same” (Research & Business Foundation Sungkyunkwan University, priority 2014, dated 2017).

Like-named read-outs stand apart in the source and are kept apart here.

The nature of series [1]: Zeta potential measurement. The class given is physicochemical. The conditions noted are these: solution alone, pH 7.4, 1 mg/mL, room temperature. As for the experimental part:
The zeta potential values of the PAU and PAUBSA conjugates were measured at room temperature by Metasizer Nano ZS instrument (Malvern Instrument). The solution concentrations for all samples were 1 mg/mL and their pH was adjusted to 7.4. The solutions were stabilized at room temperature for 20 minutes before measurement.

The nature of series [2]: In vivo lysozyme release, lysozyme in blood serum (ELISA). On the set-up: species or system male SD rats. The protocol: In order to examine the in vivo release of lysozyme, a sample solution loaded with 250 μL of lysozyme was injected to male SD rats (three rats per group). At predetermined times, blood samples were collected from the caudal vein, centrifuged to obtain blood sera, and stored them at −21° C. until the next analysis. The concentration of the lysozyme in the blood sera was measured using a commercial lysozyme (LZM) ELISA kit (Cusabio, China).
In order to examine the in vivo release of lysozyme, a sample solution loaded with 250 μL of lysozyme was injected to male SD rats (three rats per group). At predetermined tunes, blood samples were collected from the caudal vein, centrifuged to obtain blood sera, and stored them at −21° C. until the next analysis. The concentration of the lysozyme in the blood sera was measured using a commercial lysozyme (LZM) ELISA kit (Cusabio, China).

For series [3] the following is noted: cited from earlier work.
Setting [4] is: single subcutaneous injection of lysozyme-loaded sample.

Take “lysozyme: chicken egg white lysozyme, model protein loaded into the hydrogels; also injected as plain solution”: the zeta potential in series [1] is 11.2 mV. In series [2] (setting [4]), the “duration of lysozyme release until serum lysozyme reached the normal level” value is “within nine days”. For the same substance, in series [2] (setting [4]), the “initial burst release of lysozyme in vivo” value was “initial burst was obviously observed”. The “time to reach peak lysozyme level” value in series [2] (single subcutaneous injection, 10 mg/mL lysozyme) is “within two days”. Also, the “peak lysozyme level in blood” value in series [2] (single subcutaneous injection, 10 mg/mL lysozyme in the preparation) is “about 447 ng/mL”. Besides, in series [3] (in the presence of an anionic modified polymer), the “temperature up to which thermal stability is maintained” value is “up to 72 °C”. The “bioactivity of lysozyme released from PEG-based hydrogels and other polymeric devices” value is given as “about 95%” in series [3] (up to 28 days) and 100% in series [3] (up to 50 days).
